Where two headings read alike, the source gives them in different places.
T1: human CD70 expressed on parental (WT) Jurkat cells (human, UniProt P32970 1-193)
T1 sequence: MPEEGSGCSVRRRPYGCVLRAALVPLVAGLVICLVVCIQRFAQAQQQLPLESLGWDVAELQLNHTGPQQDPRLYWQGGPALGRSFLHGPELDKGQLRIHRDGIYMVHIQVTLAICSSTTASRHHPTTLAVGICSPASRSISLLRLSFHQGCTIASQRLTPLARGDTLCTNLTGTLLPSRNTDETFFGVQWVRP

T2: recombinant biotinylated human CD70 protein (human, UniProt P32970 39-193, biotinylated (site not stated))
T2 construct: also called recombinant biotinylated hCD70 protein
T2 sequence: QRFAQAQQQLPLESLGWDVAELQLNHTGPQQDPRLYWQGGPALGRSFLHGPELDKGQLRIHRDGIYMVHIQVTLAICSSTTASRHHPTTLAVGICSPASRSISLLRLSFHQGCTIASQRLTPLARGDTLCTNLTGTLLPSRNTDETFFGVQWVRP

B1: 17G6 CD70-specific CAR (other)
chain: EVQLVESGGGLVQPGGSLRLSCVASGFTFSSYWMSWVRQAPGKGLEWVASIKQDGSEKYYVDSVKGRFTISRDNAKNSVYLQMNSLRAEDTGVYYCAREGVNWGWRLYWHFDLWGRGTLVTVSSGGGGSGGGGSGGGGSGGGGSDIVMTQSPDSLAVSLGERATINCKSSQSVLYSYNNKNYVAWYQQKPGQPPNLLIFWASTRESGVPDRFSGSGSGTDFTLTISSLQAEDVAVYYCQQYYSTLTFGGGTKVEIKTTTPAPRPPTPAPTIASQPLSLRPEACRPAAGGAVHTRGLDFACDIYIWAPLAGTCGVLLLSLVITLYCKRGRKKLLYIFKQPFMRPVQTTQEEDGCSCRFPEEEEGGCELRVKFSRSADAPAYQQGQNQLYNELNLGRREEYDVLDKRRGRDPEMGGKPRRKNPQEGLYNELQKDKMAEAYSEIGMKGERRRGKGHDGLYQGLSTATKDTYDALHMQALPPR
notes: Chimeric antigen receptor on transduced Jurkat cells; the signal peptide is left out
B2: P13F04 CD70-specific CAR (other)
chain: QVQLVQSGAEVKKPGSSVKVSCKASGGTFSSYAISWVRQAPGQGLEWMGEIIPIFGTASYAQKFQGRVTITADESTSTAYMELSSLRSEDTAVYYCARAGWDDSWFDYWGQGTLVTVSSGGGGSGGGGSGGGGSGGGGSELQSVLTQPPSASGTPGQRVTISCSGSNSNIGTNYVSWYQQLPGTAPKLLIYRSSRRPSGVPDRFSGSKSGTSASLAISGLRSEDEADYYCAAWDGSLSGHWVFGTGTKLTVLTTTPAPRPPTPAPTIASQPLSLRPEACRPAAGGAVHTRGLDFACDIYIWAPLAGTCGVLLLSLVITLYCKRGRKKLLYIFKQPFMRPVQTTQEEDGCSCRFPEEEEGGCELRVKFSRSADAPAYQQGQNQLYNELNLGRREEYDVLDKRRGRDPEMGGKPRRKNPQEGLYNELQKDKMAEAYSEIGMKGERRRGKGHDGLYQGLSTATKDTYDALHMQALPPR
notes: as for B1
B3: P15D02 CD70-specific CAR (other)
chain: EVQLVQSGAEVKKPGESLKISCKGSGYSFASYWIGWVRQMPGKGLEWMGVIYPGTSETRYSPSFQGQVTISADKSISTAYLQWSSLKASDTAMYYCAKGLSASASGYSFQYWGQGTLVTVSSGGGGSGGGGSGGGGSGGGGSELDIQMTQSPSSLSASVGDRVTITCRASQSIDTYLNWYQQKPGKAPKLLIYSASSLHSGVPSRFSGSGSGTDFTLTISSLQPEDFATYYCQQSYSTTAWTFGQGTKVEIKTTTPAPRPPTPAPTIASQPLSLRPEACRPAAGGAVHTRGLDFACDIYIWAPLAGTCGVLLLSLVITLYCKRGRKKLLYIFKQPFMRPVQTTQEEDGCSCRFPEEEEGGCELRVKFSRSADAPAYQQGQNQLYNELNLGRREEYDVLDKRRGRDPEMGGKPRRKNPQEGLYNELQKDKMAEAYSEIGMKGERRRGKGHDGLYQGLSTATKDTYDALHMQALPPR
notes: as for B1
B4: P16C05 CD70-specific CAR (other)
chain: EVQLVQSGAEVKKPGESLKISCKGSGYSFTDYWIGWVRQMPGKGLEWMGMISPGGSTTIYRPSFQGQVTISADKSISTAYLQWSSLKASDTAMYYCAREMYTGGYGGSWYFDYWGQGTLVTVSSGGGGSGGGGSGGGGSGGGGSELDIQMTQSPSSLSASVGDRVTITCRASQSIGQSLNWYQQKPGKAPKLLIYGASSLQSGVPSRFSGSGSGTDFTLTISSLQPEDFATYYCQQSYSTPITFGQGTKVEIKTTTPAPRPPTPAPTIASQPLSLRPEACRPAAGGAVHTRGLDFACDIYIWAPLAGTCGVLLLSLVITLYCKRGRKKLLYIFKQPFMRPVQTTQEEDGCSCRFPEEEEGGCELRVKFSRSADAPAYQQGQNQLYNELNLGRREEYDVLDKRRGRDPEMGGKPRRKNPQEGLYNELQKDKMAEAYSEIGMKGERRRGKGHDGLYQGLSTATKDTYDALHMQALPPR
notes: as for B1
B5: P12F02 CD70-specific CAR (other)
chain: EVQLLESGGGLVQPGGSLRLSCAASGFTFSSYAMSWVRQAPGKGLEWVSTISGTGGTTYYADSVKGRFTISRDNSKNTLYLQMNSLRAEDTAVYYCAKVRAGIDPTASDVWGQGTLVTVSSGGGGSGGGGSGGGGSGGGGSELQSVLTQPPSASGTPGQRVTISCSGSTSNIGRNYVYWYQQLPGTAPKLLIYRTNQRPSGVPDRFSGSKSGTSASLAISGLRSEDEADYYCAAWDDSLSGRVFGTGTKLTVLTTTPAPRPPTPAPTIASQPLSLRPEACRPAAGGAVHTRGLDFACDIYIWAPLAGTCGVLLLSLVITLYCKRGRKKLLYIFKQPFMRPVQTTQEEDGCSCRFPEEEEGGCELRVKFSRSADAPAYQQGQNQLYNELNLGRREEYDVLDKRRGRDPEMGGKPRRKNPQEGLYNELQKDKMAEAYSEIGMKGERRRGKGHDGLYQGLSTATKDTYDALHMQALPPR
notes: as for B1
B6: 40E3 CD70-specific CAR (other)
chain: QVQLQESGPGLVKPSETLSLTCTVSGGSISSYYWNWIRQPPGKGLEWIGYIYYSGSTNYNPSLKSRVTISVDTSKNQFSLKLRSVTAADTAVYYCARDIRTWGQGTLVTVSSGGGGSGGGGSGGGGSGGGGSDIQMTQSPSSLSASVGDRVTITCRASQGISNYLAWFQQKPGKAPKSLIYAASSLQSGVPSKFSGSGSGTDFTLTISSLQPEDFATYYCQQYNSYPLTFGGGTKVEIKTTTPAPRPPTPAPTIASQPLSLRPEACRPAAGGAVHTRGLDFACDIYIWAPLAGTCGVLLLSLVITLYCKRGRKKLLYIFKQPFMRPVQTTQEEDGCSCRFPEEEEGGCELRVKFSRSADAPAYQQGQNQLYNELNLGRREEYDVLDKRRGRDPEMGGKPRRKNPQEGLYNELQKDKMAEAYSEIGMKGERRRGKGHDGLYQGLSTATKDTYDALHMQALPPR
B7: 10H10 CD70-specific CAR (other)
chain: EVQLVESGGGLVQPGGSLRLSCAVSGFTFSNHNIHWVRQAPGKGLEWISYISRSSSTIYYADSVKGRFTISRDNAKNSLYLQMNSLRDEDTAVYYCARDHAQWYGMDVWGQGTTVTVSSGGGGSGGGGSGGGGSGGGGSDIQMTQSPSSVSASVGDRVTITCRASQGISSWLAWYQQKPGKAPKVLIYAASSLQSGVPSRFSGSGSGTDFTLTISSLQPEDFATYYCQQAFSFPFTFGPGTKVDIKTTTPAPRPPTPAPTIASQPLSLRPEACRPAAGGAVHTRGLDFACDIYIWAPLAGTCGVLLLSLVITLYCKRGRKKLLYIFKQPFMRPVQTTQEEDGCSCRFPEEEEGGCELRVKFSRSADAPAYQQGQNQLYNELNLGRREEYDVLDKRRGRDPEMGGKPRRKNPQEGLYNELQKDKMAEAYSEIGMKGERRRGKGHDGLYQGLSTATKDTYDALHMQALPPR
notes: as for B1
B8: P12G07 CD70-specific CAR (other)
chain: EVQLLESGGGLVQPGGSLRLSCAASGFTFNNFAMSWVRQAPGKGLEWVSGISGSGDNTYYADSVKGRFTISRDNSKNTLYLQMNSLRAEDTAVYYCAKDRDIGLGWYSYYLDVWGQGTLVTVSSGGGGSGGGGSGGGGSGGGGSELQSVLTQPPSASGTPGQRVTISCSGSSSNIGSNYVYWYQQLPGTAPKPLIYMNNQRPSGVPDRFSGSKSGTSASLAISGLRSEDEADYYCAAWDDSLSAVVFGTGTKLTVLTTTPAPRPPTPAPTIASQPLSLRPEACRPAAGGAVHTRGLDFACDIYIWAPLAGTCGVLLLSLVITLYCKRGRKKLLYIFKQPFMRPVQTTQEEDGCSCRFPEEEEGGCELRVKFSRSADAPAYQQGQNQLYNELNLGRREEYDVLDKRRGRDPEMGGKPRRKNPQEGLYNELQKDKMAEAYSEIGMKGERRRGKGHDGLYQGLSTATKDTYDALHMQALPPR
notes: as for B1

Legend:
[1] = target: T1, human CD70 expressed on parental (WT) …; test: cell-based or functional assay
[2] = target: T2, recombinant biotinylated human CD70 …; test: flow cytometry: CAR-transduced Jurkat cells incubated with recombinant biotinylated human CD70, streptavidin-PE; percent of cells binding
Experimental: (§1) On Day 5, transduced cells were stained with human anti-CD69 antibody conjugated to PE-Cy7 and acquired on a flow cytometer to obtain percentage of CD69+ population for each CAR. […] Activation ratios (WT activation/KO activation) and protein binding were used to rank CARs.
Activation ratio and protein binding of hybridoma CARs were determined in the Jurkat screen and used for in vitro characterization of CARs. Activation ratio was determined by calculating the ratio of the percentage of CD69 expression on WT Jurkat cells transduced with CD70 CAR (WT) to that on CD70 knockout Jurkat cells transduced with CD70 CAR (KO). A higher activation ratio indicates target-dependent activation. […] Protein binding values indicate the percentage of CD3+ CAR T cells that bind to human CD70 protein.

[3] = target: T1, human CD70 expressed on parental (WT) …; test: cell-based or functional assay; remark: listed apart in the source
[4] = target: T2, recombinant biotinylated human CD70 …; test: flow cytometry: CAR-transduced Jurkat cells incubated with recombinant biotinylated human CD70, streptavidin-PE; percent of cells binding; remark: listed apart in the source
Experimental: as §1
Table 7: Activation ratio and protein binding of phage CARs were determined in the Jurkat screen. Activation ratio was used for in vitro characterization of CARs. Activation ratio was determined by calculating the ratio of the percentage of CD69 expression on WT Jurkat cells transduced with CD70 CAR (WT) to that on CD70 knockout Jurkat cells transduced with CD70 CAR (KO). A higher activation ratio indicates target-dependent activation. […] Protein binding values indicate the percentage of CD3+ CAR T cells that bind to human CD70 protein.

Binder	Activation ratio (WT/KO) [1]	Protein binding (%) [2]	Activation ratio (WT/KO) [3]	Protein binding (%) [4]
B1	6.84	37.6%		
B2			4.32	37.5%
B3			2.6	62%
B4			2.26	70.8%
B5			12	2.39%
B6	2.09			
B7	7.32	17.9%		
B8			11.6	15.5%

Reference: patent US20190233528A1 (published 2019)
